Experimental data as given in patent US20100003264A1, “Reduction of Ophthalmalogic Neovascularization” (WASHINGTON UNIVERSITY, priority 2005, published 2010).
Entries after “also recorded” stand apart in the source; their conditions may differ.

Test system: choroidal neovascularization
Assay: laser-induced choroidal neovascularization in mice, volume of the neovascular complex
Type: in vivo
Conditions: IL-10 knockout mice, IL-10 intravitreally on day of laser or three days after laser
Procedure: Volume of the neovascular complex was examined in IL-10 knockout mice. Knockout mice were purchased commercially (NCI, Frederick, Md.). All work was carried out per the ARVO guidelines for animal use in research. Rupture of Bruch's membrane with laser was used to initiate chorioretinal neovascularization in 5-7 week old mice as described in Nambu et al. ((2003) Invest Ophthalmol Vis Sci 44: 3650). Seven days after laser, the mice were anesthetized and perfused intraventricularly with fluorescein-labeled dextran. The mice were euthanized with CO2 inhalation and the eyes harvested for tissue processing. A dissecting microscope was used to remove the cornea and lens and gently separate the retina from the underlying choroid and sclera. Microscissors were used to make four radial incisions in the sclerochoroidal ‘eyecup’ in order to prepare choroidal flat mounts on glass slides. The tissues were incubated in 4% paraformaldehyde for 45 minutes and washed three times with 3% bovine serum albumin. […] The choroidal flat mounts were analyzed for presence of CNV by confocal microscopy. Extent of choroidal neovascularization was quantified by Metamorph™ imaging software. […]
Macrophages were used to proactively treat the formation of blood vessels in the eye. […] Choroidal neovascularization was analyzed on day 7. […]

B1: IL-10: cytokine produced by activated macrophages and some helper T cells; injected exogenously into eyes of IL-10 knockout mice (protein, UniProt P18893 19-178, looked up)
Interleukin-10: SRGQYSREDNNCTHFPVGQSHMLLELRTAFSQVKTFFQTKDQLDNILLTDSLMQDFKGYLGCQALSEMIQFYLVEVMPQAEKHGPEIKEHLNSLGEKLKTLRMRLRRCHRFLPCENKSKAVEQVKSDFNKLQDQGVYKAMNEFDIFINCIEAYMMIKMKS
- choroidal neovascularization (volume of the neovascular complex): reversed the inhibition choroidal neovascularization; also recorded: increased new vessel formation
- choroidal neovascularization (volume of the neovascular complex) (listed as Exogenous IL-10): reversed the inhibition choroidal neovascularization
